Results: patent US20160355591A1 (published 2016)

What was measured:
[1] = molecular target: T1, HLA-DR (human leukocyte antigen-DR) on human lymphoma and leukemia cells and human lymphocytes (human, UniProt P01903 26-254; P01911 30-266); test: competition cell-binding assay on human lymphoma cells; reference mL243
T1 construct: whole, on cells; Natural antigen on Raji, Daudi, Ramos, Namalwa and other cell lines; also called cell surface antigen (Ag) recognized by L243
Protocol: (§1) Unbound Abs were removed by washing the cells in PBS. The radioactivity associated with cells was determined after washing.

[2] = molecular target: T1, HLA-DR (human leukocyte antigen-DR) on …; test: competition cell-binding assay, unlabeled antibody against 125I-labeled L243 antibody on human lymphoma cells (FIG. 6: Raji)
Protocol: as §1

[3] = molecular target: T1, HLA-DR (human leukocyte antigen-DR) on …; test: direct cell surface saturation binding of 125I-labeled antibody to Daudi cells, 4 C, Scatchard plot; apparent dissociation constant
Protocol: The cell-associated radioactivity was counted, specific binding of radiolabeled antibody to the cell surface antigen calculated, and Scatchard plot analysis was then applied to determine the maximum number of binding sites per cell and the apparent antigen-binding affinity constant.
To measure specific cell surface antigen binding, two sets of cells were prepared and used in the binding assay to estimate the non-specific and total binding of radioactivities, respectively. The cells for non-specific binding were pre-incubated with excess amount of unlabled Ab to block all surface antigen sites prior to adding the radiolabeled antibody, while those for total binding were pre-incubated in PBS. […] The cell-associated radioactivity was counted. The specific cell surface binding of the radiolabeled antibody at a given concentration of radiolabeled antibody was calculated as: the counts of total binding minus the counts of non-specific binding.

Binder | fold stronger binding avidity than mL243 [1] [fold] | EC50 [2] [nM] | Kd [3] [nM]
hL243γ4P (IMMU-114; humanized L243, IgG4/K isotype with Ser241Pro hinge mutation) (antibody, V domains shown, Same V regions as hL243; also called hL243g4P; hL243gamma4P) VH: QVQLQQSGSELKKPGASVKVSCKASGFTFTNYGMNWVKQAPGQGLKWMGWINTYTREPTYADDFKGRFAFSLDTSVSTAYLQISSLKADDTAVYFCARDITAVVPTGFDYWGQGSLVTVSS VL: DIQLTQSPSSLSASVGDRVTITCRASENIYSNLAWYRQKPGKAPKLLVFAASNLADGVPSRFSGSGSGTDYTFTISSLQPEDIATYYCQHFWTTPWAFGGGTKLQIKR | ~2 | ~7 | 2.6
mL243 (murine L243 anti-HLA-DR monoclonal antibody, IgG2a, ATCC HB55) (antibody, V domains shown, Murine IgG2a from hybridoma ATCC HB55; also called mL234; L234) VH: QIQLVQSGPELKKPGETVKISCKASGFTFTNYGMNWVKQAPGKGLKWMGWINTYTREPTYADDFKGRFAFSLETSASTAYLQINNLKNEDTAKYFCARDITAVVPTGFDYWGQGTTLTVSS VL: DIQMTQSPASLSVSVGETVTITCRASENIYSNLAWYRQKQGKSPQLLVFAASNLADGVPSRFSGSGSGTQYSLKINSLQSEDFGDYYCQHFWTTPWAFGGGTNLEIKR | – | ~16.5 | 14
